According to the supplement of paper PMC9170038:

Test system: MS2 coat protein
Assay: apparent KD of MS2 coat protein; designed switch direction (-1 OFF switch, 1 ON switch): 1; higher = weaker reporter binding
How it was run: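 RNA switches sharing common flanks were transcribed by stalled E. coli RNA polymerase on Illumina chips. A doubling series of SNAP-549-labelled MS2 coat protein, from 0.7 or 1.5 nM to 3 µM, was applied in Tris-HCl pH 7.5 buffer with KCl, MgCl2, BSA, DTT, tRNA and Tween-20. Each step lasted 0.8–1.5 h at the bottom of the series and 10–20 min at the top. Normalised cluster fluorescence was curve-fitted, giving apparent KD as the per-design median over clusters.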

[1] = input ligand: microRNA oligo, concentration not stated
[2] = Eterna round: R95, input ligand: FMN 200 uM
[3] = Eterna round: R95, input ligand: microRNA oligo, concentration not stated
[4] = Eterna round: R95, input ligand: none

| Sequence | apparent KD of MS2 coat protein (input ligand: FMN 200 uM) | apparent KD of MS2 coat protein [1] | apparent KD of MS2 coat protein (input ligand: none) | apparent KD of MS2 coat protein [2] | apparent KD of MS2 coat protein [3] | apparent KD of MS2 coat protein [4] |
| --- | --- | --- | --- | --- | --- | --- |
| AAACAUGAGCGAGGAUAUGCGGACGAUUACGCUGUAGAAGGCGCAUGUAAAACAACAUGAGGAUCACCCAUGUCAUGUACAUGU (Eterna round: R96, puzzle: Same State NG 1) | 308 nM | 146 nM | 265 nM |  |  |  |
| AAACCACAUGAGGAUCACCCAUGUCAAGAGAGACUAGGAUAUCUGAAUUAAUUAAAUUAAGGAGAAGGAGUGAAAA [71%, Same state of confusion2, 3] (Eterna round: R96, puzzle: Same State 1) | 57.4 nM | 100 nM | 131 nM |  |  |  |
| AAACGGCCCAACGGAGGGCCACAUGAGGAUCACCCAUGUACAUAGGAUAUCACACCAACAAGGCGUGAGAAGGGUGAUUAAAAC [Xeatte] (Eterna round: R96, puzzle: Same State NG 3) | 58.1 nM | 1120 nM | 747 nM |  |  |  |
| AAACGUCACAUGAGGAUCACCCAUGUAGCCAUAAGAAGCGGACAGGAUAUUGACCUGAACGGAGUCAAGAAGGGUCAGUAUCAG [Eternabot solution 1] (Eterna round: R96, puzzle: Same State NG 3) | 14.7 nM | 12.9 nM | 18.2 nM |  |  |  |
| AAAGAAAACAUAGGAUAUGUAACAUGAGGAUCACCCAUGUAUACCUCGUAAGAGAUGAUGGAUGGACAGAAGGAUGGUCUCAGG [Default title] (Eterna round: R96, puzzle: Same State NG 2) | 134 nM | 73.7 nM | 80.6 nM |  |  |  |
| AAAGAACAUGAGGAUCACCCAUGUGGAAGAGGCACAGGAUAUCACCUCGCAAGUACGAGGUGAGAAGGGUGAUGAU [Araa] (puzzle: Same State 1) |  |  |  | 183 nM | 154 nM | 426 nM |
| AAAGCACAUGAGGAUCACCCAUGUGGAAAUAACACAGGAUAUCCUGCCGAAACUAAGGUGGGAGAAGGGUGACCUA [Iszagece] (puzzle: Same State 1) |  |  |  | 147 nM | 54 nM | 55.9 nM |
| AAAGGAUGAUGUUACAUGAGGAUCACCCAUGUAGUGAUAACUAAGGAUAUCUGUUAAAUUAAUUAAGAGAAGGUAGGAUCAUUA [AK SSNG3-V2-8.1] (Eterna round: R96, puzzle: Same State NG 3) | 43.5 nM | 45.8 nM | 53.2 nM |  |  |  |
| AAAGGAUGAUGUUACAUGAGGAUCACCCAUGUAGUGAUAACUAAGGAUAUGUGUUAAACAAGUUAAUAGAAGGUAGGAUCAUUA [AK SSNG3-V2-7] (Eterna round: R96, puzzle: Same State NG 3) | 73.9 nM | 52 nM | 69.4 nM |  |  |  |
| AAAGGCAUGGCACAGGAUAUGCAAUAAAAGACAUGAGGAUCACCCAUGUACCCGAGAAACGGGCAGCAGAAGGGUGUAAAAGAAA [Orrere] (puzzle: Same State 2) |  |  |  | 134 nM | 115 nM | 447 nM |
| AAAUAAACACAUGAGGAUCACCCAUGUCCCAAAAUACAAACGCAGGAUAUGGGCACGAACCGUGUCCAGAAGGGCGCAAAAUAC [Esonbia] (Eterna round: R96, puzzle: Same State NG 3) | 24.5 nM | 111 nM | 116 nM |  |  |  |
| AACAAACGCGGAGGAUAUGGGCGAGGCGCGGAAGUCCACGCCAAAACAUGAGGAUCACCCAUGUCCCAGAAGGCCGCACAAAAU [Gererier] (Eterna round: R96, puzzle: Same State NG 2) | 16.3 nM | 40.8 nM | 49.1 nM |  |  |  |
| AACAAUCUAUCUCAGGAUAUCAUGUCAAAGACAUGAGGAUCACCCAUGUACCAGGAAACUGGUUAUGAGAAGGGAGAUAGAUUGU [Mat - Same State 2 - Mod - D23] (puzzle: Same State 2) |  |  |  | 157 nM | 68.2 nM | 268 nM |
| AACAAUCUAUCUGAGGAUAUCAUGAAAUAAACAUGAGGAUCACCCAUGUGCAGGAAAACUGCAUAUGAGAAGGCAGAUAUAUUGA [salish99_ss2_r3_055] (puzzle: Same State 2) |  |  |  | 104 nM | 1160 nM | 4700 nM |
| AACAAUCUAUCUGAGGAUAUCAUGAAAUAAACAUGAGGAUCACCCAUGUGCAGGAAAACUGCAUAUGAGAAGGCAGUUAGAUUGA [salish99_ss2_r3_053] (puzzle: Same State 2) |  |  |  | 45.5 nM | 612 nM | 568 nM |
| AACAAUCUAUCUGAGGAUAUUAUGAAAUAAACAUGAGGAUCACCCAUGUGCAGGAAAACUGCAUAUGAGAAGGCAGAUAGAUUGA [salish99_ss2_r3_027] (Eterna round: R96, puzzle: Same State 2) |  | 274 nM |  |  |  |  |
| AACAAUCUAUCUGAGGAUAUUAUGAAAUAAACAUGAGGAUCACCCAUGUGCAGGAAAACUGCAUAUGAGAAGGCAGAUAGAUUGA [salish99_ss2_r3_027] (puzzle: Same State 2) |  |  |  | 18.8 nM | 336 nM | 636 nM |
| AACAGUCGGCGAGGAUAUGGACGUACAGGUUUGCCUGUGCGGCUCACAUGAGGAUCACCCAUGUUCUAGAAGGCGCCACUGUGA [Racearza] (Eterna round: R96, puzzle: Same State NG 2) | 15.6 nM | 60 nM | 73.9 nM |  |  |  |
| AACAUGUGGUGUCACAUGAGGAUCACCCAUGUGGUAAAACCUGAGGAUAUAAAGAAAAAAAUCAAUUAGAAGGUAGGAUCACAA [AK SSNG3-V2-18.1] (Eterna round: R96, puzzle: Same State NG 3) | 16.4 nM | 26.2 nM | 32.5 nM |  |  |  |
| AACAUUCUAUCUCAGGAUAUCAUGUCAAAGACAUGAGGAUCACCCAUGUACCAGGAAACUGGUUAUGAGAAGGGAGAUAGAAUGA [Mat - Same State 2 - Mod - D45] (Eterna round: R96, puzzle: Same State 2) | 267 nM | 517 nM | 1080 nM |  |  |  |
| AACAUUCUAUCUCAGGAUAUCAUGUCAAAGACAUGAGGAUCACCCAUGUACCAGGAAACUGGUUAUGAGAAGGGAGAUAGAAUGA [Mat - Same State 2 - Mod - D45] (puzzle: Same State 2) |  |  |  | 114 nM | 89.4 nM | 162 nM |
| AACCAACAAAUAAAACAAGCGUGCUCGUCACAUGAGGAUCACCCAUGUUUAAGCGCUAUUCCUACUUCCUCAGCGCC [Ininceisa] (puzzle: Sensor for hsa-mir-208a) |  |  |  | 104 nM |  | 97.7 nM |
| AACCCAAUGGAAGGAUAUGGCACCUUAUUGGUGCCAGAAGGUCCUAACAUGAGGAUCACCCAUGUGGGCCGGUCUUAAGACCGG [Fiskers NG1ss - 8] (Eterna round: R96, puzzle: Same State NG 1) | 142 nM | 382 nM | 456 nM |  |  |  |
| AACCUACAUGAGGAUCACCCAUGUGUCUAAGGCACAGGAUAUCGACAGGCAAGACACCUGCGAGAAGGGUGACCUA [Diatater] (puzzle: Same State 1) |  |  |  | 56.2 nM | 24 nM | 48.7 nM |
| AAGAAACAUGAGGAUCACCCAUGUGUAAAUAUGGGAGGAUAUACAAGGACGUAAGUCAAGGUAGAAGGCCUAAGAA [Mat - Same State 1 - Meechl mod - D137] (Eterna round: R96, puzzle: Same State 1) | 31 nM | 155 nM | 234 nM |  |  |  |
| AAGAGAGAAAUACAGGAUAUGAGGAGAGGAACAUGAGGAUCACCCAUGUGAGAGAAAGGGAAGAAUCAGAAGGGUAGAGAAGAGA [JR_SS2_Sub002] (puzzle: Same State 2) |  |  |  | 31.8 nM | 47 nM | 73.8 nM |
| AAGGAAUGAGCGUAGGAUAUAGGAGAAGUGACAUGAGGAUCACCCAUGUAAAAGGAGGGAUGAGACUAGAAGGACGAGGUAGGAG [JR_SS2_Sub058] (puzzle: Same State 2) |  |  |  | 57.9 nM | 53.3 nM | 81.8 nM |
| AAGGGCGGAAACGACAUGAGGAUCACCCAUGUUGCCGAAAGGCAGGAUAUCCGGCGAAAGCAGAAGGAGAAGGGUCAAGAACCA [AK SSNG3-V2-43] (Eterna round: R96, puzzle: Same State NG 3) | 38.9 nM | 24.7 nM | 43.8 nM |  |  |  |
